From patent US20230159631A1 (ME THERAPEUTICS, published 2023)

T1: recombinant human G-CSF (Genscript) (human, UniProt P09919-2 31-204, limits assumed)
T1 construct: also called hG-CSF; granulocyte colony stimulating factor
T1 sequence (looked up): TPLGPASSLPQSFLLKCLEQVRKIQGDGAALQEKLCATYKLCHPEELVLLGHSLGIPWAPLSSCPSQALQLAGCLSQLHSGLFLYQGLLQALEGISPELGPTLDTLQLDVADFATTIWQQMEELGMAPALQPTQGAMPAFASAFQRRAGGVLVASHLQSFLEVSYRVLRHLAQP


Key:
[1] = molecular target: T1, recombinant human G-CSF (Genscript); assay: SPR (ProteOn), supernatant captured on anti-mouse Fc, human G-CSF analyte, injection #1
Protocol: (§1) Affinities of clones 2F6, 1B11, 3G5, 10B9, 9B7, 10G1, and 3B3 were measured by SPR. The work was carried out at the National Research Council of Canada (Montreal, Quebec).
(§2) 2.5% supernatants (except variants 1B11.2 and 10B9.1.2 used 4%) were captured on an anti-mouse Fc antibody, flowed with a 30, 10, 3.33, 1.11, and 0.37 nM concentration series of human G-CSF with buffer blank. Association (ka) and dissociation (kd) rates were measured using a BioRad ProteOn™ instrument. Affinity (KD) was calculated as […].

[2] = molecular target: T1, recombinant human G-CSF (Genscript); assay: SPR (ProteOn), supernatant captured on anti-mouse Fc, human G-CSF analyte, injection #2
Protocol: as §1, §2

[3] = molecular target: T1, recombinant human G-CSF (Genscript); assay: SPR (Antigen binding (SPR)); antibody captured on an anti-Fc surface, antigen flowed over; column head Koff (10-4 x s-1)
[4] = molecular target: T1, recombinant human G-CSF (Genscript); assay: SPR (Antigen binding (SPR)); antibody captured on an anti-Fc surface, antigen flowed over
[5] = molecular target: T1, recombinant human G-CSF (Genscript); assay: SPR (ProteOn), supernatant captured on anti-mouse Fc, human G-CSF analyte, average of two injections
Protocol: as §1, §2

Kd [1] [nM]	koff [1] [s⁻¹]	kon [1] [M⁻¹ s⁻¹]	Kd [2] [nM]	koff [2] [s⁻¹]	kon [2] [M⁻¹ s⁻¹]	koff [3] [s⁻¹]	Kd [4] [nM]	Kd [5] [nM]	Binder
0.0663	5.15e-05	777000	0.0622	4.72e-05	758000	5e-05	0.06	0.064	anti-G-CSF antibody clone 1B11 (antibody, V domains shown, Mouse hybridoma monoclonal antibody; also called 1B11.2; 3A3) VH: QVHLQQSGAELARPGASVKMSCKASGYTFPIYTMHWIKQRPGQGLEWIGYINPSIGYANYNQKFRDKATLTADKSSSTAYMQLSSLTSEDSAVYYCARGGYGDSLFAYWGQGTLVTVSA VL: DIVMTQAAFSNPVTLGTSASISCRSSKSLLHSNGITYLYWYLQKPGQSPQLLIYQMSNLASGVPDRFSSSGSGTDFTLRISRVEAEDVGVYYCAQNLELPYTFGGGTKLEIK
–	–	–	–	–	–	0.00017	0.19	–	humanized 1B11 antibody variant 9 (h1L/h3H) (antibody, V domains shown, variable domains only; also called clone 9) VH: QVQLVQSGAEVKKPGASVKVSCKASGYTFPIYTMHWIKQAPGQGLEWIGYINPSIGYANYNQKFRDRATLTADKSTSTAYMELSSLRSEDTAVYYCARGGYGDSLFAYWGQGTLVTVSS VL: DIVMTQSPLSLPVTPGEPASISCRSSKSLLHSNGITYLYWYLQKPGQSPQLLIYQMSNLASGVPDRFSGSGSGTDFTLKISRVEAEDVGVYYCAQNLELPYTFGQGTKLEIK
–	–	–	–	–	–	0.00012	0.1	–	1B11 antibody variant 1 (cL/cH) (antibody, V domains shown, also called clone 1; chimeric 1B11) VH: QVHLQQSGAELARPGASVKMSCKASGYTFPIYTMHWIKQRPGQGLEWIGYINPSIGYANYNQKFRDKATLTADKSSSTAYMQLSSLTSEDSAVYYCARGGYGDSLFAYWGQGTLVTVSA VL: DIVMTQAAFSNPVTLGTSASISCRSSKSLLHSNGITYLYWYLQKPGQSPQLLIYQMSNLASGVPDRFSSSGSGTDFTLRISRVEAEDVGVYYCAQNLELPYTFGGGTKLEIK
0.329	0.000301	914000	0.293	0.000286	976000	–	–	0.31	anti-G-CSF antibody clone 3B3 (antibody, V domains shown, Mouse hybridoma monoclonal antibody; also called 3B3.2; 3B2) VH: QVQLQQSGAELARPGASVKMSCKASGYTFTPYTMHWVKQRPGQDLEWIGYINPSINYTNYNQKFKDKATLTADKSSSTAYMQLSSLTSEDSAVYFCARRGSYGNFDYWGQGTTLTVSS VL: DIVMTQAAFSNPVTLGTSASISCRSNKSLLHSNGITYLYWYLQKPGQSPQLLIYQMSNLASGVPDRFSSSGSGTDFTLRISRVEAEDVGVYYCAQNLELPLTFGAGTKLELK
–	–	–	–	–	–	0.00015	0.16	–	humanized 1B11 antibody variant 10 (h1L/h4H) (antibody, V domains shown, variable domains only; also called clone 10) VH: QVHLVQSGAEVKKPGASVKVSCKASGYTFPIYTMHWIKQAPGQGLEWIGYINPSIGYANYNQKFRDKATLTADKSTSTAYMELSSLRSEDTAVYYCARGGYGDSLFAYWGQGTLVTVSS VL: DIVMTQSPLSLPVTPGEPASISCRSSKSLLHSNGITYLYWYLQKPGQSPQLLIYQMSNLASGVPDRFSGSGSGTDFTLKISRVEAEDVGVYYCAQNLELPYTFGQGTKLEIK
–	–	–	–	–	–	0.00012	0.2	–	humanized 1B11 antibody variant 13 (h2L/h2H) (antibody, V domains shown, variable domains only; also called clone 13) VH: QVQLVQSGAEVKKPGASVKVSCKASGYTFPIYTMHWIRQAPGQGLEWIGYINPSIGYANYNQKFRDRATLTADTSTSTAYMELSSLRSEDTAVYYCARGGYGDSLFAYWGQGTLVTVSS VL: DIVMTQSPLSLPVTPGEPASISCRSSKSLLHSNGITYLYWYLQKPGQSPQLLIYQMSNLASGVPDRFSSSGSGTDFTLKISRVEAEDVGVYYCAQNLELPYTFGQGTKLEIK
–	–	–	–	–	–	0.00017	0.29	–	humanized 1B11 antibody variant 8 (h1L/h2H) (antibody, V domains shown, variable domains only; also called clone 8) VH: QVQLVQSGAEVKKPGASVKVSCKASGYTFPIYTMHWIRQAPGQGLEWIGYINPSIGYANYNQKFRDRATLTADTSTSTAYMELSSLRSEDTAVYYCARGGYGDSLFAYWGQGTLVTVSS VL: DIVMTQSPLSLPVTPGEPASISCRSSKSLLHSNGITYLYWYLQKPGQSPQLLIYQMSNLASGVPDRFSGSGSGTDFTLKISRVEAEDVGVYYCAQNLELPYTFGQGTKLEIK
–	–	–	–	–	–	0.00017	0.29	–	humanized 1B11 antibody variant 7 (h1L/h1H) (antibody, V domains shown, also called clone 7; Variant 7 anti-G-CSF antibody) VH: QVQLVQSGAEVKKPGASVKVSCKASGYTFPIYTMHWVRQAPGQGLEWMGYINPSIGYANYNQKFRDRVTITADTSTSTAYMELSSLRSEDTAVYYCARGGYGDSLFAYWGQGTLVTVSS VL: DIVMTQSPLSLPVTPGEPASISCRSSKSLLHSNGITYLYWYLQKPGQSPQLLIYQMSNLASGVPDRFSGSGSGTDFTLKISRVEAEDVGVYYCAQNLELPYTFGQGTKLEIK
–	–	–	–	–	–	0.00013	0.15	–	humanized 1B11 antibody variant 14 (h2L/h3H) (antibody, V domains shown, variable domains only; also called clone 14) VH: QVQLVQSGAEVKKPGASVKVSCKASGYTFPIYTMHWIKQAPGQGLEWIGYINPSIGYANYNQKFRDRATLTADKSTSTAYMELSSLRSEDTAVYYCARGGYGDSLFAYWGQGTLVTVSS VL: DIVMTQSPLSLPVTPGEPASISCRSSKSLLHSNGITYLYWYLQKPGQSPQLLIYQMSNLASGVPDRFSSSGSGTDFTLKISRVEAEDVGVYYCAQNLELPYTFGQGTKLEIK
–	–	–	–	–	–	0.0001	0.12	–	humanized 1B11 antibody variant 15 (h2L/h4H) (antibody, V domains shown, variable domains only; also called clone 15) VH: QVHLVQSGAEVKKPGASVKVSCKASGYTFPIYTMHWIKQAPGQGLEWIGYINPSIGYANYNQKFRDKATLTADKSTSTAYMELSSLRSEDTAVYYCARGGYGDSLFAYWGQGTLVTVSS VL: DIVMTQSPLSLPVTPGEPASISCRSSKSLLHSNGITYLYWYLQKPGQSPQLLIYQMSNLASGVPDRFSSSGSGTDFTLKISRVEAEDVGVYYCAQNLELPYTFGQGTKLEIK
